In patent US8840891 (RSR, dated 2014):
Where two headings read alike, the source gives them in different places.

Tests used:
[1] = biological target: TSHR with Arg80 mutated to Aspartic acid (human) (UniProt P16473); assay: cell-based or functional assay
[2] = biological target: wild type human TSHR (human) (UniProt P16473); assay: cell-based or functional assay
[3] = biological target: wild type human TSHR (human) (UniProt P16473); assay: cell-based or functional assay; remark: listed apart in the source
[4] = biological target: TSHR with Lys183 mutated to Aspartic acid (human) (UniProt P16473); assay: cell-based or functional assay
[5] = biological target: wild type human TSHR (human) (UniProt P16473); assay: cell-based or functional assay; remark: listed apart in the source
[6] = biological target: TSHR with Trp258 mutated to Alanine (human) (UniProt P16473); assay: cell-based or functional assay
[7] = biological target: wild type human TSHR (human) (UniProt P16473); assay: cell-based or functional assay; remark: listed apart in the source
[8] = biological target: TSHR with Ser281 mutated to Alanine (human) (UniProt P16473); assay: cell-based or functional assay
[9] = biological target: wild type human TSHR (human) (UniProt P16473); assay: cell-based or functional assay; remark: listed apart in the source
[10] = biological target: TSHR with His105 mutated to Alanine expressed on CHO cells (human) (UniProt P16473); assay: cell-based or functional assay
[11] = biological target: wild type human TSHR (thyrotropin receptor) expressed on CHO cells (human) (UniProt P16473); assay: cell-based or functional assay
[12] = biological target: TSHR with Glu178 mutated to Alanine expressed on CHO cells (human) (UniProt P16473); assay: cell-based or functional assay
[13] = biological target: wild type human TSHR (thyrotropin receptor) expressed on CHO cells (human) (UniProt P16473); assay: cell-based or functional assay; remark: listed apart in the source
[14] = biological target: TSHR with Tyr185 mutated to Alanine expressed on CHO cells (human) (UniProt P16473); assay: cell-based or functional assay
[15] = biological target: wild type human TSHR (thyrotropin receptor) expressed on CHO cells (human) (UniProt P16473); assay: cell-based or functional assay; remark: listed apart in the source
[16] = biological target: TSHR coated onto tubes (TSHR coated tubes) (human) (UniProt P16473); assay: Scatchard analysis, 125I-5C9 IgG and unlabelled 5C9 IgG in TSHR coated tubes

## 5C9 IgG (antibody)
[1]
  Mutated/wild type (%); 5C9 0.01 µg/mL + TSH: 161%
  Mutated/wild type (%); 5C9 0.1 µg/mL + TSH: 70%
  Mutated/wild type (%); 5C9 1.0 µg/mL + TSH: 73%
  Mutated/wild type (%); 5C9 10 µg/mL + TSH: 66%
  Mutated/wild type (%); 5C9 100 µg/mL + TSH: 79%
  Mutated/wild type (%); 5C9 100 µg/mL only: 174%
  cyclic AMP; 5C9 0.01 µg/mL + TSH (fmol/cell well): 21000
  cyclic AMP; 5C9 0.1 µg/mL + TSH (fmol/cell well): 4420
  cyclic AMP; 5C9 1.0 µg/mL + TSH (fmol/cell well): 1910
  cyclic AMP; 5C9 10 µg/mL + TSH (fmol/cell well): 1250
  cyclic AMP; 5C9 100 µg/mL + TSH (fmol/cell well): 1270
  cyclic AMP; 5C9 100 µg/mL only (fmol/cell well): 523
[2]
  cyclic AMP; 5C9 0.01 µg/mL + TSH (fmol/cell well): 13100
  cyclic AMP; 5C9 0.1 µg/mL + TSH (fmol/cell well): 6330
  cyclic AMP; 5C9 1.0 µg/mL + TSH (fmol/cell well): 2640
  cyclic AMP; 5C9 10 µg/mL + TSH (fmol/cell well): 1910
  cyclic AMP; 5C9 100 µg/mL + TSH (fmol/cell well): 1610
  cyclic AMP; 5C9 100 µg/mL only (fmol/cell well): 300
[3]
  cyclic AMP; 5C9 0.01 µg/mL + M22 (fmol/cell well): 16700
  cyclic AMP; 5C9 0.1 µg/mL + M22 (fmol/cell well): 9380
  cyclic AMP; 5C9 1.0 µg/mL + M22 (fmol/cell well): 821
  cyclic AMP; 5C9 10 µg/mL + M22 (fmol/cell well): 208
  cyclic AMP; 5C9 100 µg/mL + M22 (fmol/cell well): 301
  cyclic AMP; 5C9 100 µg/mL only (fmol/cell well): 429
[4]
  Mutated/wild type (%); 5C9 0.01 µg/mL + TSH: 160%
  Mutated/wild type (%); 5C9 0.1 µg/mL + TSH: 202%
  Mutated/wild type (%); 5C9 1.0 µg/mL + TSH: 370%
  Mutated/wild type (%); 5C9 10 µg/mL + TSH: 591%
  Mutated/wild type (%); 5C9 100 µg/mL + TSH: 524%
  cyclic AMP; 5C9 0.01 µg/mL + TSH (fmol/cell well): 20600
  cyclic AMP; 5C9 0.1 µg/mL + TSH (fmol/cell well): 17300
  cyclic AMP; 5C9 1.0 µg/mL + TSH (fmol/cell well): 12700
  cyclic AMP; 5C9 10 µg/mL + TSH (fmol/cell well): 6590
  cyclic AMP; 5C9 100 µg/mL + TSH (fmol/cell well): 9010
  cyclic AMP; 5C9 100 µg/mL only (fmol/cell well): 54
[5]
  cyclic AMP; 5C9 0.01 µg/mL + TSH (fmol/cell well): 12900
  cyclic AMP; 5C9 0.1 µg/mL + TSH (fmol/cell well): 8580
  cyclic AMP; 5C9 1.0 µg/mL + TSH (fmol/cell well): 3420
  cyclic AMP; 5C9 10 µg/mL + TSH (fmol/cell well): 1110
  cyclic AMP; 5C9 100 µg/mL + TSH (fmol/cell well): 1720
  cyclic AMP; 5C9 100 µg/mL only (fmol/cell well): < 12.5
[6]
  Mutated/wild type (%); 5C9 0.01 µg/mL + TSH: 34%
  Mutated/wild type (%); 5C9 0.1 µg/mL + TSH: 19%
  Mutated/wild type (%); 5C9 1.0 µg/mL + TSH: 43%
  Mutated/wild type (%); 5C9 10 µg/mL + TSH: 30%
  Mutated/wild type (%); 5C9 100 µg/mL + TSH: 37%
  Mutated/wild type (%); 5C9 100 µg/mL only: 200%
  cyclic AMP; 5C9 0.01 µg/mL + TSH (fmol/cell well): 6620
  cyclic AMP; 5C9 0.1 µg/mL + TSH (fmol/cell well): 1940
  cyclic AMP; 5C9 1.0 µg/mL + TSH (fmol/cell well): 1130
  cyclic AMP; 5C9 10 µg/mL + TSH (fmol/cell well): 357
  cyclic AMP; 5C9 100 µg/mL + TSH (fmol/cell well): 484
  cyclic AMP; 5C9 100 µg/mL only (fmol/cell well): 423
[7]
  cyclic AMP; 5C9 0.01 µg/mL + TSH (fmol/cell well): 19500
  cyclic AMP; 5C9 0.1 µg/mL + TSH (fmol/cell well): 10500
  cyclic AMP; 5C9 1.0 µg/mL + TSH (fmol/cell well): 2620
  cyclic AMP; 5C9 10 µg/mL + TSH (fmol/cell well): 1190
  cyclic AMP; 5C9 100 µg/mL + TSH (fmol/cell well): 1320
  cyclic AMP; 5C9 100 µg/mL only (fmol/cell well): 211
[8]
  Mutated/wild type (%); 5C9 0.01 µg/mL + TSH: 210%
  Mutated/wild type (%); 5C9 0.1 µg/mL + TSH: 172%
  Mutated/wild type (%); 5C9 1.0 µg/mL + TSH: 95%
  Mutated/wild type (%); 5C9 10 µg/mL + TSH: 193%
  Mutated/wild type (%); 5C9 100 µg only: 391%
  Mutated/wild type (%); 5C9 100 µg/mL + TSH: 149%
  cyclic AMP; 5C9 0.01 µg/mL + TSH (fmol/cell well): 29000
  cyclic AMP; 5C9 0.1 µg/mL + TSH (fmol/cell well): 15600
  cyclic AMP; 5C9 1.0 µg/mL + TSH (fmol/cell well): 3550
  cyclic AMP; 5C9 10 µg/mL + TSH (fmol/cell well): 1550
  cyclic AMP; 5C9 100 µg only (fmol/cell well): 785
  cyclic AMP; 5C9 100 µg/mL + TSH (fmol/cell well): 1600
[9]
  cyclic AMP; 5C9 0.01 µg/mL + TSH (fmol/cell well): 13800
  cyclic AMP; 5C9 0.1 µg/mL + TSH (fmol/cell well): 9070
  cyclic AMP; 5C9 1.0 µg/mL + TSH (fmol/cell well): 3730
  cyclic AMP; 5C9 10 µg/mL + TSH (fmol/cell well): 802
  cyclic AMP; 5C9 100 µg only (fmol/cell well): 201
  cyclic AMP; 5C9 100 µg/mL + TSH (fmol/cell well): 1080

B1: 5C9 IgG (human monoclonal autoantibody to the TSHR) (antibody, from another filing, V domains shown)
VH: EVQLVESGGGLIQPGGSLRLSCAASGFTVSSNYMSWVRQAPGKGLEWVSVTYSGGSTSYADSVKGRFTISRDNSKNTLYLQMNSLRAEDTAVYYCARGGRYCSSISCYARSGCDYWGQGTLVTVSS
VL: AIQMTQSPSSLSASVGDRVTITCRASQSISNYLNWYQQKPGKAPKLLIYAASSLQSGVPSRFSGSGSGTDFTLTISSLQPEDFATYYCQQSYSSPSTTFGQGTKLEIK
[10]
  Cyclic AMP produced; 5C9 0.01 µg/mL + TSH (fmol/cell well): 24200
  Cyclic AMP produced; 5C9 0.1 µg/mL + TSH (fmol/cell well): 2870
  Cyclic AMP produced; 5C9 1.0 µg/mL + TSH (fmol/cell well): 561
  Cyclic AMP produced; 5C9 10 µg/mL + TSH (fmol/cell well): 434
  Cyclic AMP produced; 5C9 100 µg/mL + TSH (fmol/cell well): 134
  Cyclic AMP produced; 5C9 100 µg/mL only (fmol/cell well): 520
  Mutated/wild type (%); 5C9 0.01 µg/mL + TSH: 145%
  Mutated/wild type (%); 5C9 0.1 µg/mL + TSH: 82%
  Mutated/wild type (%); 5C9 1.0 µg/mL + TSH: 124%
  Mutated/wild type (%); 5C9 10 µg/mL + TSH: 150%
  Mutated/wild type (%); 5C9 100 µg/mL + TSH: 60%
  Mutated/wild type (%); 5C9 100 µg/mL only: 222%
[11]
  Cyclic AMP produced; 5C9 0.01 µg/mL + TSH (fmol/cell well): 16700
  Cyclic AMP produced; 5C9 0.1 µg/mL + TSH (fmol/cell well): 3510
  Cyclic AMP produced; 5C9 1.0 µg/mL + TSH (fmol/cell well): 454
  Cyclic AMP produced; 5C9 10 µg/mL + TSH (fmol/cell well): 289
  Cyclic AMP produced; 5C9 100 µg/mL + TSH (fmol/cell well): 223
  Cyclic AMP produced; 5C9 100 µg/mL only (fmol/cell well): 234
[12]
  Cyclic AMP produced; 5C9 0.01 µg/mL + TSH (fmol/cell well): 8170
  Cyclic AMP produced; 5C9 0.1 µg/mL + TSH (fmol/cell well): 7310
  Cyclic AMP produced; 5C9 1.0 µg/mL + TSH (fmol/cell well): 3570
  Cyclic AMP produced; 5C9 10 µg/mL + TSH (fmol/cell well): 1900
  Cyclic AMP produced; 5C9 100 µg/mL + TSH (fmol/cell well): 894
  Cyclic AMP produced; 5C9 100 µg/mL only (fmol/cell well): 134
  Mutated/wild type (%); 5C9 0.01 µg/mL + TSH: 65%
  Mutated/wild type (%); 5C9 0.1 µg/mL + TSH: 168%
  Mutated/wild type (%); 5C9 1.0 µg/mL + TSH: 519%
  Mutated/wild type (%); 5C9 10 µg/mL + TSH: 302%
  Mutated/wild type (%); 5C9 100 µg/mL + TSH: 126%
  Mutated/wild type (%); 5C9 100 µg/mL only: 68%
[13]
  Cyclic AMP produced; 5C9 0.01 µg/mL + TSH (fmol/cell well): 12600
  Cyclic AMP produced; 5C9 0.1 µg/mL + TSH (fmol/cell well): 4350
  Cyclic AMP produced; 5C9 1.0 µg/mL + TSH (fmol/cell well): 688
  Cyclic AMP produced; 5C9 10 µg/mL + TSH (fmol/cell well): 630
  Cyclic AMP produced; 5C9 100 µg/mL + TSH (fmol/cell well): 712
  Cyclic AMP produced; 5C9 100 µg/mL only (fmol/cell well): 196
[14]
  Cyclic AMP produced; 5C9 0.01 µg/mL + TSH (fmol/cell well): 9370
  Cyclic AMP produced; 5C9 0.1 µg/mL + TSH (fmol/cell well): 4540
  Cyclic AMP produced; 5C9 1.0 µg/mL + TSH (fmol/cell well): 1200
  Cyclic AMP produced; 5C9 10 µg/mL + TSH (fmol/cell well): 301
  Cyclic AMP produced; 5C9 100 µg/mL only (fmol/cell well): 163
  Mutated/wild type (%); 5C9 0.01 µg/mL + TSH: 54%
  Mutated/wild type (%); 5C9 0.1 µg/mL + TSH: 73%
  Mutated/wild type (%); 5C9 1.0 µg/mL + TSH: 72%
  Mutated/wild type (%); 5C9 10 µg/mL + TSH: 63%
  Mutated/wild type (%); 5C9 100 µg/mL only: 133%
[15]
  Cyclic AMP produced; 5C9 0.01 µg/mL + TSH (fmol/cell well): 17300
  Cyclic AMP produced; 5C9 0.1 µg/mL + TSH (fmol/cell well): 6220
  Cyclic AMP produced; 5C9 1.0 µg/mL + TSH (fmol/cell well): 1660
  Cyclic AMP produced; 5C9 10 µg/mL + TSH (fmol/cell well): 481
  Cyclic AMP produced; 5C9 100 µg/mL + TSH (fmol/cell well): 275
  Cyclic AMP produced; 5C9 100 µg/mL only (fmol/cell well): 123
[16]
  Ka: 4e+10 M⁻¹
